Assay results: the supplement of paper PMC9170038

Test system: K4 kissing-loop RNA reporter
Test: apparent KD of K4 kissing-loop reporter; higher = weaker reporter binding
Settings: Eterna round: R107
Description: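 RNA-MaP round R107: designed RNA switches with theophylline, tryptophan, arginine or FMN aptamers are transcribed on-chip within common flanks. They are titrated with a labelled K4 kissing-loop RNA reporter in RNA-MaP buffer (100 mM Tris pH 7.5, 80 mM KCl, 4 mM MgCl2), without ligand or with the indicated ligand. Median apparent KD per design.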

[1] = input ligand: theophylline 20 uM
[2] = input ligand: tryptophan 2.4 mM
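Note: bound reporter read as fluorescence of individual clusters on recovered sequencing chips by microscopy, with normalized cluster intensities fitted with a binding model.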

Sequence	apparent KD of K4 kissing-loop reporter (input ligand: FMN 200 uM)	apparent KD of K4 kissing-loop reporter (input ligand: arginine 13.2 mM)	apparent KD of K4 kissing-loop reporter (input ligand: none)	apparent KD of K4 kissing-loop reporter [1]	apparent KD of K4 kissing-loop reporter [2]
GCUAUGGUAGGAAGGAGCGCUACCUUGUUUUUACGAGUGAUGUUCGGAAGCAGGGUGUUAAAGCAGGUAGGUCGCCUACUAUAGC [Arginine B K4 21]	192 nM	178 nM	167 nM	205 nM	176 nM
UGGAUAUAGUGAUGUUAUAUAGAGAUGGAUACCAGCUAAGAGAAUGGCCCUUGGCAGCCGAAAGAAGUAUCAUUAGAGAAGAAUG [ExTheophyl.Ag]	261 nM	249 nM	259 nM	276 nM	214 nM
GGAGGAGAAUAUGAUACCAGCAGAGAGAGAGAGGAAGUAUAGUGAUGUUAUAUGUGAGAAUGCCCUUGGCAGCAUAACAAGAAGG [whbob_SS_Theo_B_sa88]	121 nM	225 nM	194 nM	116 nM	122 nM
CUCGUGGGUUUGAGAGGGCUUGUGGGAAGUGAGGAUAUUUAGGGAGGGAGAAGGUACUAUAGAAUAUAGUGAUGUUAUAUAUGGG [SSFMNA.U]	264 nM	138 nM	185 nM	111 nM	147 nM
GCAACAUUGGCAGGAUAUCAUUCUGAGUGAUGUUCAGGGUUCAGCUAACGAAAGUUAGUUGUACCAUGAGAAGGGCUAAUGUUGC [Omei KL FMN B SS A v1]	332 nM	886 nM	1120 nM	1020 nM	1080 nM
CGAUGUUCCUGGGAUACCAGUCGGAGUCUCAGAGCUCGGAGUGAUGUUCUGGGAUGUUUCGGCCCUUGGCAGCUCUGGGACUCCU [#2 Exclusion - Theophylline B Attempt #22 (HarryS)]	881 nM	630 nM	819 nM	840 nM	662 nM
UGUGAUGUGUAGUGUGAUGUUUUGAAGGAUACCAGAGUGUUGUUAUUCCCUUGGCAGCUUGAGUGAUGUUUGAUGUUGUUGUUGU [aawemullin]	324 nM	179 nM	260 nM	229 nM	224 nM
AAGUAAUGUAUAGAUUAUAUACAUUAAACAGAGGAUAUGCAUUAUUGCAGAAGGCUGAAUGCAGUGAUGUUGCAAUAAUUAUUUA [JR_SSFMNA_Sub002]	53.1 nM	190 nM	184 nM	297 nM	146 nM
UGGGAUGUUAAAGGAUAUAGCAGAUGAUACAAGAAAGUGAGUGAUGUUUAUGUAGAUGAUGAUAUGUUAGAAGGUUAACAAAACG [abcdefghijk]	625 nM	595 nM	754 nM	715 nM	544 nM
GGUAGCAUGGCGGCCGCCACUGUCUACUGAGGCGGAGUGAUGUUCCGGUUUAAAUAACAAGUUCACAGGACCGGGCCAUGCUACC	382 nM	400 nM	462 nM	471 nM	141 nM
AGUCCACUCUAAAGAGUGGACCUAAGGGAUACCAGUGAUGUUGGUCACCCUUGGCAGCCCACUGUCAUCGAUAAAGAUGGCAGCA	119 nM	106 nM	113 nM	117 nM	117 nM
CGCGGCCCGCCGGAUACCAGUGACCCGCGGGAAACCGCGGGCCCAGAGUGAUGUUCGGGACACCCUUGGCAGCCGCCUGGGCGUG [#2 Same State - Theophylline B Attempt #1 (HarryS)]	567 nM	325 nM	620 nM	1000 nM	424 nM
GGAGCAGUGAUGUUGCUUGUAAUGCAUUCAGAGGAUAUUCGUUUGGGAAGAAGGCUGAAUCGUUCUUCGAGUGAUGUUCGAGGAU [Same State FMN A GF 16]	154 nM	154 nM	156 nM	148 nM	138 nM
GCAAAGGCCCAUCGGAAUUCGAGACCAGCACGAGGACCGGUACGGCCGCCACUCGUGCAGUGAUGUUGCACGAAUGGGAAACCGC [Oninanso]	112 nM	103 nM	125 nM	118 nM	147 nM
